Assay results taken from PMC8630071, “The NUCKS1-SKP2-p21/p27 axis controls S phase entry”.

T1: NUCKS1, dephosphorylated (UniProt Q9H1E3 1-243)
T1 sequence: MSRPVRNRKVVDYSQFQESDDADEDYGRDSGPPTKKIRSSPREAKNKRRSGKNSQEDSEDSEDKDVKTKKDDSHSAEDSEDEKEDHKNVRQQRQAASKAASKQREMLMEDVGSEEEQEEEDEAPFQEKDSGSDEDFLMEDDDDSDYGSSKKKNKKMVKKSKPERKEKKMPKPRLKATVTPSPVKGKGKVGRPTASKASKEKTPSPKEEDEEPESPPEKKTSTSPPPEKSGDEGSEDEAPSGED

B1: SKP2 promoter WT probe (dsDNA)
DNA 1: GCCGACCAGTCCCGCTCCCGCGGGGGGTTGTGGGTATCTCGAAGGCGGGTAAAGCTGCA
DNA 2: TGCAGCTTTACCCGCCTTCGAGATACCCACAACCCCCCGCGGGAGCGGGACTGGTCGGC
B2: SKP2 promoter mutant probe (no GC-box), unlabelled competitor (dsDNA)
DNA 1: GCCGACCAGTCCCGCTCCCGCGGGGGGTTGTGGGTATCTCGAAAAAAAATAAAGCTGCA
DNA 2: TGCAGCTTTATTTTTTTTCGAGATACCCACAACCCCCCGCGGGAGCGGGACTGGTCGGC

Tests used:
[1] = target: T1, NUCKS1, dephosphorylated; experiment: EMSA; lambda phosphatase treated; 10.24-2500 nM protein, 25 nM probe; text: almost 10-fold; 20 mM Tris-HCl pH 7.5, 100 mM KCl, 0.2% NP-40, 20% glycerol, 2 mM DTT, 50 ng (pure protein) or 1 ug (extract) salmon sperm DNA, 25 nM probe, 15 min at 37 C; native 6% PAGE; details: protein: recombinant; tags: His6; label: IRDye-800; blunt
[2] = target: T1, NUCKS1, dephosphorylated; experiment: competition EMSA; 100x unlabelled competitor against labelled WT probe; not outcompeted; 20 mM Tris-HCl pH 7.5, 100 mM KCl, 0.2% NP-40, 20% glycerol, 2 mM DTT, 50 ng (pure protein) or 1 ug (extract) salmon sperm DNA, 25 nM probe, 15 min at 37 C; native 6% PAGE; details: protein: recombinant; tags: His6; blunt

Row | Binder | binding signal [1] | binding result [2]
1 | B1 | ~10 fold higher affinity than phosphorylated NUCKS1 | –
2 | B2 | – | no binding
